We go through 3 molecules from publication PMC3161976, “Transportin 3 Promotes a Nuclear Maturation Step Required for Efficient HIV-1 Integration” (PLoS Pathogens, 2011).

The experiment has as its target RanQ69L-GTP (UniProt P62826 1-216, Q69L). In words: pull-down; GST-Tnp3 or its deletion mutants held on glutathione-Sepharose 4B beads, with RanQ69L-GTP and G2 tRNA, equimolar tRNA and Tnp3; binding buffer 50 mM Hepes pH 7.3, 200 mM NaCl, 2 mM Mg(Ac)2, 10 µM GTP; 4°C; 15% SDS-PAGE and silver staining. The settings on record: both partners purified.

B1: GST-Tnp3 DC880 deletion mutant (domain or fragment)
chain: MEGAKPTLQLVYQAVQALYHDPDPSGKERASFWLGELQRSVHAWEISDQLLQIRQDVESCYFAAQTMKMKIQTSFYELPTDSHASLRDSLLTHIQNLKDLSPVIVTQLALAIADLALQMPSWKGCVQTLVEKYSNDVTSLPFLLEILTVLPEEVHSRSLRIGANRRTEIIEDLAFYSSTVVSLLMTCVEKAGTDEKMLMKVFRCLGSWFNLGVLDSNFMANNKLLALLFEVLQQDKTSSNLHEAASDCVCSALYAIENVETNLPLAMQLFQGVLTLETAYHMAVAREDLDKVLNYCRIFTELCETFLEKIVCTPGQGLGDLRTLELLLICAGHPQYEVVEISFNFWYRLGEHLYKTNDEVIHGIFKAYIQRLLHALARHCQLEPDHEGVPEETDDFGEFRMRVSDLVKDLIFLIGSMECFAQLYSTLKEGNPPWEVTEAVLFIMAAIAKSVDPENNPTLVEVLEGVVRLPETVHTAVRYTSIELVGEMSEVVDRNPQFLDPVLGYLMKGLCEKPLASAAAKAIHNICSVCRDHMAQHFNGLLEIARSLDSFLLSPEAAVGLLKGTALVLARLPLDKITECLSELCSVQVMALKKLLSQEPSNGISSDPTVFLDRLAVIFRHTNPIVENGQTHPCQKVIQEIWPVLSETLNKHRADNRIVERCCRCLRFAVRCVGKGSAALLQPLVTQMVNVYHVHQHSCFLYLGSILVDEYGMEEGCRQGLLDMLQALCIPTFQLLEQQNGLQNHPDTVDDLFRLATRFIQRSPVTLLRSQVVIPILQWAIASTTLDHRDANCSVMRFLRDLIHTGVANDHEEDFELRKELIGQVMNQLGQQLVSQLLHTCCFCLPPYTLPDVAEVLWEIMQVDRPTFCRWLENSLKGLP
notes: Transportin 3 (Tnp3), human, C-terminal deletion mutant DC880; made by PCR from pGST-TRN-SR2 with the Tnp3 forward primer (from the start ATG) and the DC880 reverse primer, cloned into pGEX-2T; source: E. coli BL21(DE3), purified (glutathione-Sepharose beads, Superdex 200 gel filtration); not shown: GST, N-terminal, kept
As to B1, the binding result is given as “binds”.

B2: GST-Tnp3 (Transportin 3), full length (natural protein)
chain: MEGAKPTLQLVYQAVQALYHDPDPSGKERASFWLGELQRSVHAWEISDQLLQIRQDVESCYFAAQTMKMKIQTSFYELPTDSHASLRDSLLTHIQNLKDLSPVIVTQLALAIADLALQMPSWKGCVQTLVEKYSNDVTSLPFLLEILTVLPEEVHSRSLRIGANRRTEIIEDLAFYSSTVVSLLMTCVEKAGTDEKMLMKVFRCLGSWFNLGVLDSNFMANNKLLALLFEVLQQDKTSSNLHEAASDCVCSALYAIENVETNLPLAMQLFQGVLTLETAYHMAVAREDLDKVLNYCRIFTELCETFLEKIVCTPGQGLGDLRTLELLLICAGHPQYEVVEISFNFWYRLGEHLYKTNDEVIHGIFKAYIQRLLHALARHCQLEPDHEGVPEETDDFGEFRMRVSDLVKDLIFLIGSMECFAQLYSTLKEGNPPWEVTEAVLFIMAAIAKSVDPENNPTLVEVLEGVVRLPETVHTAVRYTSIELVGEMSEVVDRNPQFLDPVLGYLMKGLCEKPLASAAAKAIHNICSVCRDHMAQHFNGLLEIARSLDSFLLSPEAAVGLLKGTALVLARLPLDKITECLSELCSVQVMALKKLLSQEPSNGISSDPTVFLDRLAVIFRHTNPIVENGQTHPCQKVIQEIWPVLSETLNKHRADNRIVERCCRCLRFAVRCVGKGSAALLQPLVTQMVNVYHVHQHSCFLYLGSILVDEYGMEEGCRQGLLDMLQALCIPTFQLLEQQNGLQNHPDTVDDLFRLATRFIQRSPVTLLRSQVVIPILQWAIASTTLDHRDANCSVMRFLRDLIHTGVANDHEEDFELRKELIGQVMNQLGQQLVSQLLHTCCFCLPPYTLPDVAEVLWEIMQVDRPTFCRWLENSLKGLPKETTVGAVTVTHKQLTDFHKQVTSAEECKQVCWALRDFTRLFR
notes: also called GST-Tnp3 (FL); TRN-SR2; source: E. coli BL21(DE3), purified (glutathione-Sepharose beads, dialysis); not shown: GST, N-terminal, kept
For the molecule B2, the binding result is “binds”.

B3: GST-Tnp3 DC825 deletion mutant (domain or fragment)
chain: MEGAKPTLQLVYQAVQALYHDPDPSGKERASFWLGELQRSVHAWEISDQLLQIRQDVESCYFAAQTMKMKIQTSFYELPTDSHASLRDSLLTHIQNLKDLSPVIVTQLALAIADLALQMPSWKGCVQTLVEKYSNDVTSLPFLLEILTVLPEEVHSRSLRIGANRRTEIIEDLAFYSSTVVSLLMTCVEKAGTDEKMLMKVFRCLGSWFNLGVLDSNFMANNKLLALLFEVLQQDKTSSNLHEAASDCVCSALYAIENVETNLPLAMQLFQGVLTLETAYHMAVAREDLDKVLNYCRIFTELCETFLEKIVCTPGQGLGDLRTLELLLICAGHPQYEVVEISFNFWYRLGEHLYKTNDEVIHGIFKAYIQRLLHALARHCQLEPDHEGVPEETDDFGEFRMRVSDLVKDLIFLIGSMECFAQLYSTLKEGNPPWEVTEAVLFIMAAIAKSVDPENNPTLVEVLEGVVRLPETVHTAVRYTSIELVGEMSEVVDRNPQFLDPVLGYLMKGLCEKPLASAAAKAIHNICSVCRDHMAQHFNGLLEIARSLDSFLLSPEAAVGLLKGTALVLARLPLDKITECLSELCSVQVMALKKLLSQEPSNGISSDPTVFLDRLAVIFRHTNPIVENGQTHPCQKVIQEIWPVLSETLNKHRADNRIVERCCRCLRFAVRCVGKGSAALLQPLVTQMVNVYHVHQHSCFLYLGSILVDEYGMEEGCRQGLLDMLQALCIPTFQLLEQQNGLQNHPDTVDDLFRLATRFIQRSPVTLLRSQVVIPILQWAIASTTLDHRDANCSVMRFLRDLIHTGVANDHEEDFELRKELIGQV
notes: Transportin 3 (Tnp3), human, lacking the last C-terminal 98 residues; made by PCR from pGST-TRN-SR2 with the Tnp3 forward primer (from the start ATG) and the DC825 reverse primer, cloned into pGEX-2T; also called ΔC; C-term deleted Tnp3; source: E. coli BL21(DE3), purified (glutathione-Sepharose beads, Superdex 200 gel filtration); not shown: GST, N-terminal, kept
With B3, the binding result is “binds”.
